# Values of other authors as cited in PMC3433420.
# Where two headings read alike, the source gives them in different places.
# How the values were obtained:
# Conditions in all cases: cited from earlier work
# VAV2 (Homo sapiens) [1] = biological target: VAV2 (Homo sapiens) (UniProt P52735)
# SH2D3A (Homo sapiens) = SH2D3A (Homo sapiens) (UniProt Q9BRG2)
# BLK (Homo sapiens) = BLK (Homo sapiens) (UniProt P51451)
# SHC1-PTB (Homo sapiens) [2] = biological target: SHC1-PTB (Homo sapiens) (UniProt P29353)
# SUPT6H (Homo sapiens) = SUPT6H (Homo sapiens) (UniProt Q7KZ85)
# GRB7 (Homo sapiens) = GRB7 (Homo sapiens) (UniProt Q14451)
# SYK-C (Homo sapiens) = SYK-C (Homo sapiens) (UniProt P43405)
# PIK3R1-N (Homo sapiens) = PIK3R1-N (Homo sapiens) (UniProt P27986)
# PIK3R1-C (Homo sapiens) = PIK3R1-C (Homo sapiens) (UniProt P27986)
# CRKL (Homo sapiens) = CRKL (Homo sapiens) (UniProt P46109)
# SHC1-PTB (Homo sapiens) [3] = biological target: SHC1-PTB (Homo sapiens) (UniProt P29353); remark: listed apart in the source
# TENC1 (Homo sapiens) = TENC1 (Homo sapiens) (UniProt Q63HR2)
# SH2D3C (Homo sapiens) [4] = biological target: SH2D3C (Homo sapiens) (UniProt Q8N5H7)
# YES1 (Homo sapiens) [5] = biological target: YES1 (Homo sapiens) (UniProt P07947)
# TNS3 (Homo sapiens) = TNS3 (Homo sapiens) (UniProt Q68CZ2)
# VAV2 (Homo sapiens) [6] = biological target: VAV2 (Homo sapiens) (UniProt P52735); remark: listed apart in the source
# SRC (Homo sapiens) = SRC (Homo sapiens) (UniProt P12931)
# SHC1 (Homo sapiens) = SHC1 (Homo sapiens) (UniProt P29353)
# PIK3R1-NC (Homo sapiens) = PIK3R1-NC (Homo sapiens) (UniProt P27986)
# SHC3 (Homo sapiens) = SHC3 (Homo sapiens) (UniProt Q92529)
# SHC4 (Homo sapiens) = SHC4 (Homo sapiens) (UniProt Q6S5L8)
# GRB10 (Homo sapiens) = GRB10 (Homo sapiens) (UniProt Q13322)
# YES1 (Homo sapiens) [7] = biological target: YES1 (Homo sapiens) (UniProt P07947); remark: listed apart in the source
# PLCG2-N (Homo sapiens) = PLCG2-N (Homo sapiens) (UniProt P16885)
# PLCG2-NC (Homo sapiens) = PLCG2-NC (Homo sapiens) (UniProt P16885)
# SH2B2 (Homo sapiens) = SH2B2 (Homo sapiens) (UniProt O14492)
# BCAR3 (Homo sapiens) = BCAR3 (Homo sapiens) (UniProt O75815)
# ITK (Homo sapiens) = ITK (Homo sapiens) (UniProt Q08881)
# ABL2 (Homo sapiens) = ABL2 (Homo sapiens) (UniProt P42684)
# SH2D3C (Homo sapiens) [8] = biological target: SH2D3C (Homo sapiens) (UniProt Q8N5H7); remark: listed apart in the source
# TXK (Homo sapiens) = TXK (Homo sapiens) (UniProt P42681)
# TXK (Homo sapiens), sequence (P42681 145-251): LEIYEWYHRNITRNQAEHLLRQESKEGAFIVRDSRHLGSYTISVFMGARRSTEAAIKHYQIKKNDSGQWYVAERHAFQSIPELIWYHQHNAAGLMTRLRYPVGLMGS
# SHC1-PTB (Homo sapiens), sequence (P29353 483-583): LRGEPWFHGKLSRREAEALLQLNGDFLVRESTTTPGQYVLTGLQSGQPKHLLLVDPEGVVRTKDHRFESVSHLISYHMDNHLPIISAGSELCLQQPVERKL
# VAV2 (Homo sapiens), sequence (P52735 668-772): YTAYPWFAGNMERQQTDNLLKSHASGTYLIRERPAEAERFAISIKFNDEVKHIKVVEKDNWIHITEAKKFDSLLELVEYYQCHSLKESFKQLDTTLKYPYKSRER
# SH2D3C (Homo sapiens), sequence (Q8N5H7 215-324): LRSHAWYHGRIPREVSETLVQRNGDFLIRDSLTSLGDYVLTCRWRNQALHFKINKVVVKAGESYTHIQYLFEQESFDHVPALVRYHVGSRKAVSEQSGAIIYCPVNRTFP
# YES1 (Homo sapiens), sequence (P07947 153-260): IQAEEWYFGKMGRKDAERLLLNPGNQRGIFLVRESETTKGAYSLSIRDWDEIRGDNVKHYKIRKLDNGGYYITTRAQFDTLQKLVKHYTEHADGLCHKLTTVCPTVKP
# TENC1 (Homo sapiens), sequence (Q63HR2 1135-1252): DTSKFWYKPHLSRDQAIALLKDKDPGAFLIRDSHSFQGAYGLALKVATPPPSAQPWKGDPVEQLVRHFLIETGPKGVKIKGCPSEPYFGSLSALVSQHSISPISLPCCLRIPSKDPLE
# BLK (Homo sapiens), sequence (P51451 119-225): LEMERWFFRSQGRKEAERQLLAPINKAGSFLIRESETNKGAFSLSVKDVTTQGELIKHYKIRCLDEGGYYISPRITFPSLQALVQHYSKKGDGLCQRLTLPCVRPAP
# ITK (Homo sapiens), sequence (Q08881 234-343): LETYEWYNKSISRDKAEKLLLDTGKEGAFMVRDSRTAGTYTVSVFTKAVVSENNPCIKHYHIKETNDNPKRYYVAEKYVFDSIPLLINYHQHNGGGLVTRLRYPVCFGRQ
# CRKL (Homo sapiens), sequence (P46109 9-107): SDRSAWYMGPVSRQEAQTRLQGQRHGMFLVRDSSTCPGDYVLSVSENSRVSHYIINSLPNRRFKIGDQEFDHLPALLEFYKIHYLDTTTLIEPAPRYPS
# GRB7 (Homo sapiens), sequence (Q14451 426-532): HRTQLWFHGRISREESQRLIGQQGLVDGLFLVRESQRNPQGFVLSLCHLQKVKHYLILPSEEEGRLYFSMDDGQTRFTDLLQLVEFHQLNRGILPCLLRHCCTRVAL
# ABL2 (Homo sapiens), sequence (P42684 168-268): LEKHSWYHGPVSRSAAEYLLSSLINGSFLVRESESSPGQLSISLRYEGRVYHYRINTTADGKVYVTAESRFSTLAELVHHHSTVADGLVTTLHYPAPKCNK
# SHC1 (Homo sapiens), sequence (P29353 483-583): as the sequence (P29353 483-583) above
# PLCG2-N (Homo sapiens), sequence (P16885 527-740): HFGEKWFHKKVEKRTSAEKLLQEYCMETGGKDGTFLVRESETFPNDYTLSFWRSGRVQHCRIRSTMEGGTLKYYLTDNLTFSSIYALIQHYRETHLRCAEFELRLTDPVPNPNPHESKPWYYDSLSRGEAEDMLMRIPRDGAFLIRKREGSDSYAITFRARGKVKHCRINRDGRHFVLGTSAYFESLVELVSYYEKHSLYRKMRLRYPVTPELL
# PLCG2-NC (Homo sapiens), sequence (P16885 527-740): as above
# BCAR3 (Homo sapiens), sequence (O75815 149-258): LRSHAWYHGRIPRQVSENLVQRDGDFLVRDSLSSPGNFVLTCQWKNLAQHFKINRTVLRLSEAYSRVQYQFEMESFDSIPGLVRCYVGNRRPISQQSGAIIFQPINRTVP
# SH2B2 (Homo sapiens), sequence (O14492 412-520): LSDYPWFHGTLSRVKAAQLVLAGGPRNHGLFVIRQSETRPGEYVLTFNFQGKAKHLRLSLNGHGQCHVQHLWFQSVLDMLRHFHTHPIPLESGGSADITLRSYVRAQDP
# SHC3 (Homo sapiens), sequence (Q92529 494-594): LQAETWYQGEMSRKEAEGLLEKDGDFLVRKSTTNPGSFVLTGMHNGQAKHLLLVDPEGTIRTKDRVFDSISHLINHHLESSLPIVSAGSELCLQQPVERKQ
# PIK3R1-N (Homo sapiens), sequence (P27986 328-723): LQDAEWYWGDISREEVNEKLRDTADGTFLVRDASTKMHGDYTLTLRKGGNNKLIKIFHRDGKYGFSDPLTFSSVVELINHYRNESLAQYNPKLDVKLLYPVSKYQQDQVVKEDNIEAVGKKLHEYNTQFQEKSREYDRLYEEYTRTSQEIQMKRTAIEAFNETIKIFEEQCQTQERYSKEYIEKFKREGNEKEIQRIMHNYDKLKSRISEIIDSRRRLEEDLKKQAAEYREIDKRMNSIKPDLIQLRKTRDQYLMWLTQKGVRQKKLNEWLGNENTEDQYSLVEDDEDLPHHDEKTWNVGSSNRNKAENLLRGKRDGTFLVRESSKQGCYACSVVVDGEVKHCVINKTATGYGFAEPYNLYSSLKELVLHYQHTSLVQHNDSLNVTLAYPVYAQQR
# PIK3R1-NC (Homo sapiens), sequence (P27986 328-723): as above
# PIK3R1-C (Homo sapiens), sequence (P27986 328-723): as above
# TNS3 (Homo sapiens), sequence (Q68CZ2 1167-1287): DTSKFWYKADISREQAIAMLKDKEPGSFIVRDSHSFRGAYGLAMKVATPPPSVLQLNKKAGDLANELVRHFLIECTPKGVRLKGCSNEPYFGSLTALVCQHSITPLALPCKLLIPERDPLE
# SUPT6H (Homo sapiens), sequence (Q7KZ85 1320-1436): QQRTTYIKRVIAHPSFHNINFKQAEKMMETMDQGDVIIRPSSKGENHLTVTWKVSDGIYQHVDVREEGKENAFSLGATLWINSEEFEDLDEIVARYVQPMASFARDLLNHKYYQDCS
# SHC4 (Homo sapiens), sequence (Q6S5L8 521-622): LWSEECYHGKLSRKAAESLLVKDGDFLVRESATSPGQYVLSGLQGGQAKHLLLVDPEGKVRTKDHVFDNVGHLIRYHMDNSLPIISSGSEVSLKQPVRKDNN
# GRB10 (Homo sapiens), sequence (Q13322 488-579): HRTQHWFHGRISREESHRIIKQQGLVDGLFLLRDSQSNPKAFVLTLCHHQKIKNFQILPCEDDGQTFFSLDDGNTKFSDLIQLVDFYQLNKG
# SH2D3A (Homo sapiens), sequence (Q9BRG2 10-119): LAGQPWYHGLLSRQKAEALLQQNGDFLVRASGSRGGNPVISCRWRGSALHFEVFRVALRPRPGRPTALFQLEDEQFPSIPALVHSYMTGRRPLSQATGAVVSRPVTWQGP
substance,measurement,setting,value
…pYLVPQQGF,apparent Kd (screen),VAV2 (Homo sapiens) [1],2000 nM
same,apparent Kd (screen),SH2D3A (Homo sapiens),2000 nM
same,apparent Kd (screen),BLK (Homo sapiens),2000 nM
same,apparent Kd (screen),SHC1-PTB (Homo sapiens) [2],2000 nM
same,apparent Kd (screen),SUPT6H (Homo sapiens),912 nM
…pYLIPQQGFd,apparent Kd (screen),GRB7 (Homo sapiens),2000 nM
same,apparent Kd (screen),SYK-C (Homo sapiens),934 nM
same,apparent Kd (screen),PIK3R1-N (Homo sapiens),899 nM
same,apparent Kd (screen),PIK3R1-C (Homo sapiens),873 nM
same,apparent Kd (screen),CRKL (Homo sapiens),998 nM
same,apparent Kd (screen),SHC1-PTB (Homo sapiens) [3],628 nM
same,apparent Kd (screen),TENC1 (Homo sapiens),2000 nM
same,apparent Kd (screen),SH2D3C (Homo sapiens) [4],2000 nM
…pYEEMRAFQ,apparent Kd (screen),YES1 (Homo sapiens) [5],2000 nM
same,apparent Kd (screen),TNS3 (Homo sapiens),639 nM
same,apparent Kd (screen),VAV2 (Homo sapiens) [6],2000 nM
same,apparent Kd (screen),SRC (Homo sapiens),999 nM
same,apparent Kd (screen),SHC1 (Homo sapiens),999 nM
same,apparent Kd (screen),PIK3R1-NC (Homo sapiens),49 nM
same,apparent Kd (screen),SHC3 (Homo sapiens),123 nM
…pYWDQDPPE,apparent Kd (screen),SHC4 (Homo sapiens),2000 nM
same,apparent Kd (screen),GRB10 (Homo sapiens),486 nM
same,apparent Kd (screen),YES1 (Homo sapiens) [7],2000 nM
same,apparent Kd (screen),PLCG2-N (Homo sapiens),601 nM
same,apparent Kd (screen),PLCG2-NC (Homo sapiens),263 nM
same,apparent Kd (screen),SH2B2 (Homo sapiens),1470 nM
same,apparent Kd (screen),BCAR3 (Homo sapiens),2000 nM
same,apparent Kd (screen),ITK (Homo sapiens),224 nM
same,apparent Kd (screen),ABL2 (Homo sapiens),192 nM
same,apparent Kd (screen),SH2D3C (Homo sapiens) [8],705 nM
same,apparent Kd (screen),TXK (Homo sapiens),2000 nM
